Columns and labels:
[1] = cited from earlier work
[2] = system: Micrococcus luteus cell wall suspension; assay: Lysozyme activity, turbidity assay; format: biochemical; settings: lysozyme-chitosan 1:3 pastes; for lysozyme enzymatic activity after drying: t-REV 300 Watts, 30 Torr, 10 min
Method: Lysozyme activity was determined by the turbidity assay method using freeze-dried Micrococcus luteus cell wall suspension.

[3] = Water activity (Aqua lab water activity meter); format: physicochemical; settings: REV, 10% SMP, 10 Torr (200 W)
Method: (§1) The puffed foam material was removed from the drier and packed in polyethylene bags. The final moisture content and water activity of the dried foams were measured after 24 hours of drying (allow the sample to equilibrate) using air oven method and Aqua lab water activity meter (model series 3, Decagon Device Inc., Washington, USA).
as §1, with “structure” for “material”
The water activity of the samples before microwave vacuum drying, immediately after drying and during storage was measured (Aqualab R Model series 3, Decagon Devices, Inc., Washington, USA).

## lysozyme: Lysozyme extracted from chicken egg-white (Neova Technologies Inc.)
[1]; encapsulated with hydrogenated vegetable oil and calcium stearate
  retention during pelleting: up to 75%
[1]; unprotected lysozyme, pelleting at 195° F.
  loss after the feed pelleting process: More than 50%
[2]; before versus after t-REV
  increase in lysozyme activity after t-REV: about 10%
[2]
  lysozyme enzymatic activity after drying: no enzymatic activity loss
[2]; listed as Lysozyme
  lysozyme enzymatic activity after drying: retained its activity

## Bifidobacterium longum
[3]
  aw: 0.36 ± 0.01

Source: US8877469B2, “Method of drying biological material” (Enwave Corporation, priority 2004, dated 2014)
